Source: patent US5972636A (priority 1997, dated 1999)
Entries after “also recorded” stand apart in the source; their conditions may differ.

Experiments:
[1] = tested on: proteasome-multipain complex formation; type: biochemical, rabbit
[2] = tested on: fraction II (ATP-dependent degradative system); test: Hydrolysis of Ub-125I-lysozyme by muscle fraction II; type: biochemical, rabbit
Method: All enzymatic assays were linear, except where noted (see below). When present, ATP was 2 mM in assays. Unless otherwise stated, in all assays, 50 μl aliquots of the fraction from the column or of the purified protease (10 μg)were incubated in 200 μl containing 50 mM TRIS-HCl (pH 7.8), 10 mM MgCl2, 1 mM DTT, and 5 μg of the radioactive proteins, 0.5 μg of Ub-conjugates, or 0.5 mM of the fluorogenic peptide. For assays of proteolysis, the reaction mixtures contained approximately 15,000 cpm of Ub-lysozyme or labeled proteins. Degradation of ^125 I-lysozyme, Ub-^125 I-lysozyme, ^14 C-casein, ^14 C-hemoglobin and OH/O2^- treated ^14 C-hemoglobin were assayed by measuring the production of acid-soluble radioactivity after 60 min of incubation at 37° C. Ub-^125 I-lysozyme was prepared using liver fraction II, according to the method of Hough and Rechsteiner. Hough et al., J. Biol. Chem. 261:2400-2408 (1986), Hough, R. and Rechsteiner, M. J. Biol. Chem. 261:2391-2399 (1986). ^125 I-lysozyme and Ub were prepared as described previously. Waxman et al., J. Biol. Chem. 262:2451-2457 (1987), Fagan et al., BioChem. J. 243:335-343 (1987). The concentration of conjugates was calculated based on the specific radioactivity of the ^125 I-lysxozyme used for conjugate synthesis. One unit of sLLVT-MCA represents 10 nmol of MCA produced in 30 min. […]

[3] = tested on: 1500 kDa complex (proteasome-multipain)
[4] = tested on: new protease (multipain) from skeletal muscle
denervated soleus = type: cell-based, rat
[5] = biological target: T1, proteasome from skeletal muscle (Oryctolagus cuniculus, UniProt G1T4Q9); type: biochemical, rabbit
T1 construct: from tissue; host or cells: rabbit skeletal (psoas) muscle, proteasome fraction after Mono Q and Superose 6

Ub-lysozyme conjugates = test: Degradation of Ub-lysozyme conjugates in 1st and 2nd hour with additions at 60 min; type: biochemical, rabbit; conditions: substance added at 60 min, cystatin 4 μM

Nc1ncnc2c1ncn2[C@@H]1O[C@H](COP(=O)(O)OP(=O)(O)NP(=O)(O)O)[C@@H](O)[C@H]1O [AMP-PNP, adenyl 5'-oyl-imidodiphosphate]
effect on formation of the proteasome-multipain complex, in words [1]: completely prevented complex formation
effect on degradation of Ub-conjugated proteins by fraction II, in words [2]: did not stimulate the degradation of Ub-conjugated proteins
effect of nucleotides on Ub-125I-lysozyme hydrolysis by the complex, in words ([3]; Table VIII): No stimulation
Realtive Activity (%) Complex, Ub-lysozyme degradation ([3]; Table VIII, None = 100, 2 mM of the nucleotide or 10 mM PPi): 109%
effect of nucleotides on Ub-125I-lysozyme hydrolysis by the purified enzyme, in words ([4]; Table III): No stimulation
Relative activity (%), degradation of Ub-125I-lysozyme by the new activity ([4]; Table III, None = 100, 2 mM of the nucleotides or 10 mM PPi, 37° C. 1 hour): 90%

Nc1ncnc2c1ncn2[C@@H]1O[C@H](COP(=O)(O)CP(=O)(O)OP(=O)(O)O)[C@@H](O)[C@H]1O [AMP-CPP]
effect on degradation of Ub-conjugated proteins by fraction II, in words [2]: did not stimulate the degradation of Ub-conjugated proteins

CN [Methylamine]
Myofibrillar Proteins 3-Methylhistidine Release (denervated soleus; None = 5.11 ± 0.21, as E65): 5.05 ± 0.19 pmol/mg/2h
Total Proteins Tyrosine Release (denervated soleus; soleus three days after section of the sciatic nerve, None = 328 ± 10, methylamine 10 μM, E64c 50 μM, dinitrophenol 0.1 mM, 2-deoxyglucose 5 mM): 330 ± 11 pmol/mg/2h

B1: Cystatin A: egg-white cystatin, a potent inhibitor of many papain-like thiol proteinases (protein, UniProt P01040 1-98, looked up)
Cystatin-A: MIPGGLSEAKPATPEIQEIVDKVKPQLEEKTNETYGKLEAVQYKTQVVAGTNYYIKVRAGDNKYMHLKVFKSLPGQNEDLVLTGYQVDKNKDDELTGF
effect on formation of the proteasome-multipain complex, in words [1]: did not occur; also recorded: blocked
Realtive Activity (%) Proteasome (sLLVT-MCA) [5]: 93%
Relative activity (%) […]-MCA [5]: 93%
Realtive Activity (%) Complex (Ub-125I-Lysozyme) [3]: 35%
inhibition of conjugate breakdown by the complex [3]: 65%
Degradation in 2nd hour (Ub-lysozyme conjugates; Complex added initially, None = 65): 18 ng
Degradation in 2nd hour (Ub-lysozyme conjugates; Multipain added initially, None = 74): 4 ng
Realtive Activity (%) Multipain [4]: 30%
Relative activity (%) NEW PROTEASE OH/O2 - treated hemoglobin [4]: 27%
Relative activity (%) NEW PROTEASE Ub-lysozyme [4]: 30%
Relative activity (%) NEW PROTEASE lysozyme [4]: 24%
Ki ([4]; read-out: Ki, inhibition of proteolysis by multipain): < 1000 nM
